Measured values reported in patent publication US12173330B2, “Method for producing hydroxy-L-pipecolic acid” (API CORPORATION, priority 2015, dated 2024).

Assays:
[1] = test system: O=C(O)[C@@H]1CCCCN1; assay: purified protein, by the assay type
[2] = test system: O=C(O)[C@@H]1CCCN1; assay: purified protein, by the assay type; conditions: other: substrate: L-proline, 20 mmol/L 2-oxoglutaric acid, 30° C.
[3] = other: substrate: L-pipecolic acid, 20 mmol/L 2-oxoglutaric acid, 30° C.

Substance	Km [1, 3]	Km ([1]; 30.0 °C)	Km [2]
Colletotrichum gloeosporioides Nara qc5 L-pipecolic acid trans-4-hydroxylase CgPH, SEQ ID NO: 12 (Colletotrichum fructicola Nara gc5)	8560 µM		
Gibberella zeae PH-1 L-pipecolic acid trans-4-hydroxylase GzPH, SEQ ID NO: 16 (Fusarium graminearum PH-1)		4720 µM	
Segniliparus rugosus ATCC BAA-974 L-pipecolic acid cis-5-hydroxylase SruPH, SEQ ID NO: 4 (Segniliparus rugosus ATCC BAA-974)	1090 µM		400 µM
